Each block holds one binder with its values, some of them ahead of it.
Key:
Clone #20 [1] = assay: MSD-SET; Fab
Clone #1 [2] = assay: MSD-SET; Fab
Clone #17 [3] = assay: MSD-SET; Fab
Clone #14 [4] = assay: MSD-SET; Fab
Clone #18 [5] = assay: MSD-SET; Fab
Clone #15 [6] = assay: MSD-SET; Fab
Clone #13 [7] = assay: MSD-SET; Fab
Clone #10 = assay: BLI (ForteBio Octet); IgG, monovalent
Clone #20 [8] = assay: BLI (ForteBio Octet); IgG, monovalent
Clone #2 = assay: BLI (ForteBio Octet); IgG, monovalent
Clone #1 [9] = assay: BLI (ForteBio Octet); IgG, monovalent
Clone #8 = assay: BLI (ForteBio Octet); IgG, monovalent
Clone #11 = assay: BLI (ForteBio Octet); IgG, monovalent
Clone #17 [10] = assay: BLI (ForteBio Octet); IgG, monovalent
Clone #3 = assay: BLI (ForteBio Octet); IgG, monovalent
Clone #16 = assay: BLI (ForteBio Octet); IgG, monovalent
Clone #19 = assay: BLI (ForteBio Octet); IgG, monovalent
Clone #9 = assay: BLI (ForteBio Octet); IgG, monovalent
Clone #5 = assay: BLI (ForteBio Octet); IgG, monovalent
Clone #14 [11] = assay: BLI (ForteBio Octet); IgG, monovalent
Clone #18 [12] = assay: BLI (ForteBio Octet); IgG, monovalent
Clone #7 = assay: BLI (ForteBio Octet); IgG, monovalent
Clone #4 = assay: BLI (ForteBio Octet); IgG, monovalent
Clone #15 [13] = assay: BLI (ForteBio Octet); IgG, monovalent
Clone #12 = assay: BLI (ForteBio Octet); IgG, monovalent
Clone #6 = assay: BLI (ForteBio Octet); IgG, monovalent
Clone #13 [14] = assay: BLI (ForteBio Octet); IgG, monovalent

- Kd (Clone #20 [1]): 0.61 nM
- Kd (Clone #1 [2]): 2.1 nM
- Kd (Clone #17 [3]): 0.099 nM
- Kd (Clone #14 [4]): 0.15 nM
- Kd (Clone #18 [5]): 0.038 nM
- Kd (Clone #15 [6]): 0.38 nM
- Kd (Clone #13 [7]): 0.17 nM
B1: Biotinylated Human CD39-His (enzyme)
chain: TQNKALPENVKYGIVLDAGSSHTSLYIYKWPAEKENDTGVVHQVEECRVKGPGISKFVQKVNEIGIYLTDCMERAREVIPRSQHQETPVYLGATAGMRLLRMESEELADRVLDVVERSLSNYPFDFQGARIITGQEEGAYGWITINYLLGKFSQKTRWFSIVPYETNNQETFGALDLGGASTQVTFVPQNQTIESPDNALQFRLYGKDYNVYTHSFLCYGKDQALWQKLAKDIQVASNEILRDPCFHPGYKKVVNVSDLYKTPCTKRFEMTLPFQQFEIQGIGNYQQCHQSILELFNTSYCPYSQCAFNGIFLPPLQGDFGAFSAFYFVMKFLNLTSEKVSQEKVTEMMKKFCAQPWEEIKTSYAGVKEKYLSEYCFSGTYILSLLLQGYHFTADSWEHIHFIGKIQGSDAGWTLGYMLNLTNMIPAEQPLSTPLSHSTYV

- Kd (Clone #10): 37.3 nM
- Kd (Clone #20 [8]): 3.89 nM
- Kd (Clone #2): 11.6 nM
- Kd (Clone #1 [9]): 8.04 nM
- Kd (Clone #8): 28.3 nM
- Kd (Clone #11): 14.7 nM
- Kd (Clone #17 [10]): 1.14 nM
- Kd (Clone #3): 3.25 nM
- Kd (Clone #16): 3.81 nM
- Kd (Clone #19): 28.3 nM
- Kd (Clone #9): 124 nM
- Kd (Clone #5): 29.6 nM
- Kd (Clone #14 [11]): 1.25 nM
- Kd (Clone #18 [12]): 0.706 nM
- Kd (Clone #7): 94.3 nM
- Kd (Clone #4): 3.65 nM
- Kd (Clone #15 [13]): 1.97 nM
- Kd (Clone #12): 1.38 nM
- Kd (Clone #6): 177 nM
- Kd (Clone #13 [14]): 1.19 nM
B2: Human CD39-His (enzyme)
chain: TQNKALPENVKYGIVLDAGSSHTSLYIYKWPAEKENDTGVVHQVEECRVKGPGISKFVQKVNEIGIYLTDCMERAREVIPRSQHQETPVYLGATAGMRLLRMESEELADRVLDVVERSLSNYPFDFQGARIITGQEEGAYGWITINYLLGKFSQKTRWFSIVPYETNNQETFGALDLGGASTQVTFVPQNQTIESPDNALQFRLYGKDYNVYTHSFLCYGKDQALWQKLAKDIQVASNEILRDPCFHPGYKKVVNVSDLYKTPCTKRFEMTLPFQQFEIQGIGNYQQCHQSILELFNTSYCPYSQCAFNGIFLPPLQGDFGAFSAFYFVMKFLNLTSEKVSQEKVTEMMKKFCAQPWEEIKTSYAGVKEKYLSEYCFSGTYILSLLLQGYHFTADSWEHIHFIGKIQGSDAGWTLGYMLNLTNMIPAEQPLSTPLSHSTYV

From patent US20210095041A1 (published 2021)
